According to patent publication US20260055176A1 (SURFACE ONCOLOGY, published 2026):
Values belong to the binder of their own block, whether it stands above or below them.

Columns and labels:
recombinant human IL-27 [1] = molecular target: T1, recombinant human IL-27 (human, UniProt Q14213 21-229; Q8NEV9 29-243); test: SPR (Biacore T200), hIL-27 immobilised on CM5, single cycle kinetics
T1 construct: Bought heterodimeric cytokine (R&D Systems); the whole exemplary entries for EBI3 and p28 are named here, signal peptides included; also called hIL-27; rhIL-27
T1 sequence 1: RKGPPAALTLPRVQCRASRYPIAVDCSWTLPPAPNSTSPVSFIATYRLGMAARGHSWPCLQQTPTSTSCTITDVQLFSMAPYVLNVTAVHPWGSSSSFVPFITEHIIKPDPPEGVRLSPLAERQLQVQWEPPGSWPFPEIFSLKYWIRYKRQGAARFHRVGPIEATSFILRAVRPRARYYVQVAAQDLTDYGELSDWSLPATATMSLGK
T1 sequence 2: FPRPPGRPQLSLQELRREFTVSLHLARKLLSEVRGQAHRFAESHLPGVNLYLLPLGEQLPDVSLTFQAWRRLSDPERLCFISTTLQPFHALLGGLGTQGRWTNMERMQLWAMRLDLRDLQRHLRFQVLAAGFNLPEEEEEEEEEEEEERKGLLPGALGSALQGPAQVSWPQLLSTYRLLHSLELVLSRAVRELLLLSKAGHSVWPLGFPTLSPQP
Protocol: The antibodies were further characterized by surface plasmon resonance (SPR). Kinetic experiments were performed on a Biacore T200 (GE Healthcare, Uppsala, Sweden). All experiments were run at 25° C. with HBS-P+running buffer (pH 7.4) (GE Healthcare, Little Chalfont, UK) using hIL-27 (R&D Systems, Abingdon, UK). Human IL-27 (hIL-27) antigen was captured on a CM5 chip to ˜ 16 RU. Immobilization was carried out at a protein concentration of 1 μg/mL in 10 mM acetate buffer pH 5.0. A three point, three-fold dilution range from 3.3 nM to 30 nM of antibody diluted in HBS-P+buffer without regeneration between each concentration was used. The association phase for the three injections of increasing concentrations of antibody was monitored for 75 seconds each time and a single dissociation phase was measured for 250 seconds following the last injection of antibody. Regeneration of the hIL-27 surface was conducted using a single injection of 2M MgCl₂ for 120s. Multiple repeats (n=4) of the chimeric antibody were performed throughout the assay to check the stability of the surface and analyte over the kinetic cycles.

recombinant human IL-27 [2] = molecular target: T1, recombinant human IL-27; test: MSD sandwich immunoassay: named antibody coated as capture (0.5 ug/mL), recombinant human IL-27 500 ng/mL, biotinylated SRF381 as detection, SULFO-TAG streptavidin
Protocol: The ability of anti-IL-27 antibodies to pair with the anti-p28 antibody SRF381 to detect recombinant human IL-27 was assessed by sandwich MSD Immunoassay. Briefly, MSD QUICKPLEX 96-well plates (Meso Scale Discovery L55XA) were coated with 50 μL/well anti-IL-27 antibodies (0.5 μg/mL diluted in PBS) sealed and incubated overnight at 4° C. Plates were washed 3 times with 150 μL/well of wash buffer (PBS+0.01% Tween). Plates were then blocked with 200 μL/well of blocking buffer (PBS+1% BSA+0.01% Tween) for 1 hour at room temperature (RT) with shaking. Blocking buffer was decanted, plates were washed 3 times with 150 μL/well of wash buffer, and 50 μL/well recombinant human IL-27 (R&D Systems 2526-IL/CF) (500 ng/mL diluted in blocking buffer) was added to each well for 2 hours at RT with shaking. Plates were washed 3 times with 150 μL/well of wash buffer, and 50 μL biotinylated SRF381 (diluted 0.5 μg/mL in blocking buffer) was added to each well for 1 hour at RT with shaking. […] Plates were washed 3 times with 150 μL/well of wash buffer and 150 μL of MSD read buffer (Meso Scale Discovery R92TC-1) (diluted to 2X in deionized water) was added to each well and plates were read on a MESO QUICKPLEX SQ120.

recombinant human IL-27 [3] = molecular target: T1, recombinant human IL-27; test: cell-based or functional assay

binding result (recombinant human IL-27 [1]): no binding (tested: 30 nM)
B1: Ab7.7 (antibody, human IgG1, kappa, V domains shown)
VH: EVKLVESGGGLVQPGGSLRLSCAASGFTFTSYSMSWVRQAPGKGLEWVAYISYDGGSAYYPDTVKGRFTISRDNSKKTLYLQMSSLKSEDTAMYYCARHGDYDDDDAMDYWGQGTSVTVSS
VL: DIQMTQSPSSLSASVGDRVTITCRASENIYSYLNWYQQKPGKAPKLLVYNAETLTEGVPSRFSGSGSGTDFTLTISSLQPEDFATYYCQHHYGTPLTFGQGTKLEIKR
notes: humanized, human IgG1 / kappa; Ab7-VL4 variant; also called Ab7-VH1-IgG1 + Ab7-VL4-Kappa

binding result (recombinant human IL-27 [1]): no binding (tested: 30 nM)
B2: Ab7.15 (antibody, human IgG1, kappa, V domains shown)
VH: EVKLVESGGGLVQPGGSLRLSCAASGFTFTSYSMSWVRQAPGKGLEWVAYISYDGGSAYYPDTVKGRFTISRDNSKKTLYLQMNSLRAEDTAVYYCARHGDYDDDDAMDYWGQGTLVTVSS
VL: DIQMTQSPSSLSASVGDRVTITCRASENIYSYLNWYQQKPGKAPKLLVYNAETLTEGVPSRFSGSGSGTDFTLTISSLQPEDFATYYCQHHYGTPLTFGQGTKLEIKR
notes: humanized, human IgG1 / kappa; Ab7-VL4 variant; also called Ab7-VH3-IgG1 + Ab7-VL4-Kappa

binding result (recombinant human IL-27 [1]): no binding (tested: 30 nM)
B3: Ab7.19 (antibody, human IgG1, kappa, V domains shown)
VH: EVQLVESGGGLVQPGGSLRLSCAASGFTFTSYSMSWVRQAPGKGLEWVAYISYDGGSAYYPDTVKGRFTISRDNSKNTLYLQMNSLRAEDTAVYYCARHGDYDDDDAMDYWGQGTLVTVSS
VL: DIQMTQSPSSLSASVGDRVTITCRASENIYSYLNWYQQKPGKAPKLLVYNAETLTEGVPSRFSGSGSGTDFTLTISSLQPEDFATYYCQHHYGTPLTFGQGTKLEIKR
notes: humanized, human IgG1 / kappa; Ab7-VL4 variant; also called Ab7-VH4-IgG1 + Ab7-VL4-Kappa

binding result (recombinant human IL-27 [1]): no binding (tested: 30 nM)
B4: Ab7.11 (antibody, human IgG1, kappa, V domains shown)
VH: EVQLVESGGGLVQPGGSLRLSCAASGFTFTSYSMSWVRQAPGKGLEWVAYISYDGGSAYYPDTVKGRFTISRDNSKNTLYLQMSSLKSEDTAMYYCARHGDYDDDDAMDYWGQGTLVTVSS
VL: DIQMTQSPSSLSASVGDRVTITCRASENIYSYLNWYQQKPGKAPKLLVYNAETLTEGVPSRFSGSGSGTDFTLTISSLQPEDFATYYCQHHYGTPLTFGQGTKLEIKR
notes: humanized, human IgG1 / kappa; Ab7-VL4 variant; also called Ab7-VH2-IgG1 + Ab7-VL4-Kappa

binding result (recombinant human IL-27 [1]): no binding (tested: 30 nM)
B5: Ab7.23 (antibody, human IgG1, kappa, V domains shown)
VH: EVQLVESGGGLVQPGGSLRLSCAASGFTFTSYSMSWVRQAPGKGLEWVSYISYDGGSAYYPDTVKGRFTISRDNSKNTLYLQMNSLRAEDTAVYYCARHGDYDDDDAMDYWGQGTLVTVSS
VL: DIQMTQSPSSLSASVGDRVTITCRASENIYSYLNWYQQKPGKAPKLLVYNAETLTEGVPSRFSGSGSGTDFTLTISSLQPEDFATYYCQHHYGTPLTFGQGTKLEIKR
notes: humanized, human IgG1 / kappa; Ab7-VL4 variant; also called Ab7-VH5-IgG1 + Ab7-VL4-Kappa

binding result (recombinant human IL-27 [2]): binds
B6: SRF605 (antibody, V domains shown)
VH: QVQLQESGPGLVKPSQTLSLTCTVSGGSISSGGYYWSWIRQHPGKGLEWIGNIYYSGSTYYNPSLKSRVTISVDTSKNQFSLKLSSVTAADTAVYYCARDGVYQPGAYYWGQGTLVTVSS
VL: DIQLTQSPSSVSASVGDRVTITCRASQGISSWLAWYQQKPGKAPKLLIYGASSLQSGVPSRFSGSGSGTDFTLTISSLQPEDFATYYCQQGVSFPITFGGGTKVEIKR
notes: also called SRF605-A; SRF605-B

IC50 of inhibition of IL-27-mediated phosphorylation of STAT1 in HUT-78 cells (recombinant human IL-27 [3]): 80 ng/mL | IC50 of inhibition of IL-27-mediated phosphorylation of STAT1 in U937 cells (recombinant human IL-27 [3]): 81 ng/mL | IC50 of inhibition of IL-27-mediated phosphorylation of STAT1 in pooled human PBMCs (recombinant human IL-27 [3]): 140 ng/mL
B7: SRF381 (antibody, V domains shown)
VH: EVQLVESGGGLVKPGGSLRLSCAASGFTFRSYGMNWVRQAPGKGLEWVSSISSSSSYIYYADSVKGRFTISRDNAKNSLYLQMNSLRAEDTAVYYCARDGGRTSYTATAHNWFDPWGQGTLVTVSS
VL: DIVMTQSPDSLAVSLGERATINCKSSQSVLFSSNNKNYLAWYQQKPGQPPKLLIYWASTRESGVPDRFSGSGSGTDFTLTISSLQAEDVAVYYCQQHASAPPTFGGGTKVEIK

IC50 of inhibition of IL-27-mediated phosphorylation of STAT1 in HUT-78 cells (recombinant human IL-27 [3]): 95 ng/mL | IC50 of inhibition of IL-27-mediated phosphorylation of STAT1 in U937 cells (recombinant human IL-27 [3]): 96 ng/mL | IC50 of inhibition of IL-27-mediated phosphorylation of STAT1 in pooled human PBMCs (recombinant human IL-27 [3]): 58.3 ng/mL
B8: SRF388 (antibody, V domains shown)
VH: EVQLVESGGGLVKPGGSLRLSCAASGFTFRSYGMNWVRQAPGKGLEWVSGISSSGSYIYYADSVKGRFTISRDNAKNSLYLQMNSLRAEDTAVYYCARDGGRTSYTATAHNWFDPWGQGTLVTVSS
VL: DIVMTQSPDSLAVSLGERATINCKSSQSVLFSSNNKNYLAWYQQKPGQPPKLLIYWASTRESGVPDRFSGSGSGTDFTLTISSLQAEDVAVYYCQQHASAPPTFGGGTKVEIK
